Measurements published in patent US20250388889A1 (priority 2019, published 2025).
Several values for one entry are separate records, joined by “and”; a condition that tells them apart may be missing. Identical values can stand only once. Entries after “also recorded” stand apart in the source; their conditions may differ. Marks after values point to notes of the source that are not given here.

Tests used:
c-MYC [1] = format: cell-based, human
[2] = system: A498 kidney epithelial cells; format: cell-based, human
CK1α1 [3] = format: cell-based, human
MB49 bladder tumors = conditions: mouse, in vivo
CK1α1 [4] = biological target: CK1α1 (Homo sapiens, UniProt P48729)
Sequence of CK1α1 (Homo sapiens, UniProt P48729) (P48729 whole entry): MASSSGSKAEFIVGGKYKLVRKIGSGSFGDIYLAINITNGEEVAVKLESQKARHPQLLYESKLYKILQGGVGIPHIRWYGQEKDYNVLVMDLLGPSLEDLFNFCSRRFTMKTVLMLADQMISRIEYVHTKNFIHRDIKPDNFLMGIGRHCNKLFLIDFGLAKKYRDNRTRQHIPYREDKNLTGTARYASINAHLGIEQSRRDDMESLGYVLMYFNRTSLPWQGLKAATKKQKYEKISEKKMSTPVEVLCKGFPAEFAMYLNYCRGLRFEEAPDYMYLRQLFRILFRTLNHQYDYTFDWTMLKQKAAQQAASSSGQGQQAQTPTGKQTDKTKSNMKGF
Description: Kidney epithelial cells were stained with rabbit anti-c-MYC (Abcam), rabbit anti-CK1α1 (Cell Signaling Technology), rabbit anti-c-MYB (Sigma Aldrich), rabbit anti-CEBPD (Abcam) or mouse anti-his6-tag primary antibodies (1:200 in 5% FBS/PBS, overnight at 4° C.), followed by secondary goat anti-rabbit Alexa Fluor 488-conjugated or goat-anti mouse Alexa Fluor 568-conjugated antibodies (Molecular Probes, A-11034) (1:200 in 5% FBS and 0.025% Triton X-100/PBS, 1 hour at room temperature). Cells were counterstained with DRAQ5 (Abcam) and examined using a LSM 510 META laser scanning confocal microscope (Carl Zeiss). Fluorescence signal was quantified in 50 cells per condition using Image J.
Cells were lysed with NP-40 lysis buffer supplemented with protease and phosphatase inhibitors (Roche diagnostics). Proteins were run on SDS-PAGE (4-12% Bis-Tris gels, Invitrogen), blotted onto PVDF membranes (Biorad), blocked and stained with primary rabbit anti-c-MYC (1:1000, Abcam), rabbit anti-CK1α1 (1:1000, Cell Signaling Technology) or rabbit-anti-Lon (1:2000, Biorbyt) overnight at 4° C. Membranes were washed and stained with HRP-conjugated goat anti-rabbit HRP conjugated secondary antibodies (1:4000, Cell Signaling) washed again, imaged using ECL plus detection reagent (GE Healthcare) and quantified by ImageJ. β-actin was used as a loading control.

Actin = format: biochemical
CBEB1 = CBEB1 (Homo sapiens, UniProt Q9BZB8); assay: In vitro degradation assay, CPEB1; format: biochemical
Sequence of CBEB1 (Q9BZB8 whole entry): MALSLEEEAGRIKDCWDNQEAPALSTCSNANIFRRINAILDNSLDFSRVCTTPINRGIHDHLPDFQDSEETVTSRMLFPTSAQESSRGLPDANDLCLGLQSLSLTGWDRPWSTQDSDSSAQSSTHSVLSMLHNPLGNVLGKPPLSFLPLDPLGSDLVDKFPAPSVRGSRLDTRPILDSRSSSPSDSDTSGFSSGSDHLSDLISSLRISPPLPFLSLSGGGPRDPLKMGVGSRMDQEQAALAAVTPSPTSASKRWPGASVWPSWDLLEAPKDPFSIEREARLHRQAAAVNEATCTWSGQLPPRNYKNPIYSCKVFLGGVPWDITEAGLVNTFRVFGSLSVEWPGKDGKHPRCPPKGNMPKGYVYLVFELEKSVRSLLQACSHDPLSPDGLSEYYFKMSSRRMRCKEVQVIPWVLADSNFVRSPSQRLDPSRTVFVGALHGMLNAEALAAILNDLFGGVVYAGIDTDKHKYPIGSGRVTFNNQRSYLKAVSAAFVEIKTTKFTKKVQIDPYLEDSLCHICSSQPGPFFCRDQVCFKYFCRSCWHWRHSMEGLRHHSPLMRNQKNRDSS
Description: (§1) 0.1 μg of recombinant proteins were incubated with 0.2 μg of Lon protease (Abcam, ab141921), or PBS, in a reaction buffer consisting of 20 mM MgCl2 in the presence of ATP (2 mM) in 50 mM Tris. pH 8.0. Proteins were incubated at 37° C. for 60, 120 or 240 minutes and were denatured using 10 mM DTT in NuPAGE Sample Buffer at 100° C. for 5 minutes before further analysis.

c-MYC [5] = biological target: T1, c-MYC (Homo sapiens, UniProt P01106); format: binding
T1 construct: GST
T1 sequence (P01106 16-454): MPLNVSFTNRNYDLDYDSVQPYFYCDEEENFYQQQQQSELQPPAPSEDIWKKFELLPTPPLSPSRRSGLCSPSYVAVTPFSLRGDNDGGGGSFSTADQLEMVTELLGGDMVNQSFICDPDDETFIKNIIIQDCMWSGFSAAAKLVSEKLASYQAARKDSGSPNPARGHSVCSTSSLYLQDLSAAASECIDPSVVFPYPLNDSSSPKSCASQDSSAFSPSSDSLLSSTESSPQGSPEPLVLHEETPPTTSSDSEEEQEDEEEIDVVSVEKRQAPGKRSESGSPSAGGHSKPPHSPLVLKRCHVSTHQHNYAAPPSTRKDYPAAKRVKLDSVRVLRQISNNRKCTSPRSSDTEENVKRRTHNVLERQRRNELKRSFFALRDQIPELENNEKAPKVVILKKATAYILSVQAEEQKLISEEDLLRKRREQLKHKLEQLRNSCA

MAX [6] = biological target: T2, MAX (Homo sapiens, UniProt P61244); assay: In vitro degradation assay, MAX; format: biochemical
T2 sequence (P61244 whole entry, species assumed): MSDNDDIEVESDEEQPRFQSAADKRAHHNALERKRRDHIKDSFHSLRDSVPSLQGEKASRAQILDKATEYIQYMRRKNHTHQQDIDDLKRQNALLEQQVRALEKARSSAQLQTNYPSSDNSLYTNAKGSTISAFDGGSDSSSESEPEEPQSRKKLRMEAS
Description: as §1

AKT = format: biochemical
CDK9 = CDK9 (Homo sapiens, UniProt P50750); assay: In vitro degradation assay, CDK9; format: biochemical
Sequence of CDK9 (P50750 whole entry, species assumed): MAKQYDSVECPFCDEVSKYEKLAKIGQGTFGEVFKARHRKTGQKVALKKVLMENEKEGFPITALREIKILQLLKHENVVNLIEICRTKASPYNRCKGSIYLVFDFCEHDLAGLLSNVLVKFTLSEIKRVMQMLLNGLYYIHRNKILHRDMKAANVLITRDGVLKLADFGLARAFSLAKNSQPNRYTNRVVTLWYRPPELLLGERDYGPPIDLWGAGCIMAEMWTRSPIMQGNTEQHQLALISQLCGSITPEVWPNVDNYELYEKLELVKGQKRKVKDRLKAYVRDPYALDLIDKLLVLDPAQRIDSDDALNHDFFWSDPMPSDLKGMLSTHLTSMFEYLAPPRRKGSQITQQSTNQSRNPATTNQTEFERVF
Description: as §1

CEBP-δ = format: cell-based, human
HH3 = format: biochemical
intestinal polyps = system: intestinal polyps; set-up: species or system C57BL/6J-APC^min/J mice; conditions: mouse, in vivo
GRP75 = GRP75 (Homo sapiens, UniProt P38646); assay: In vitro degradation assay, GRP75; format: biochemical
Sequence of GRP75 (P38646 47-679, species assumed): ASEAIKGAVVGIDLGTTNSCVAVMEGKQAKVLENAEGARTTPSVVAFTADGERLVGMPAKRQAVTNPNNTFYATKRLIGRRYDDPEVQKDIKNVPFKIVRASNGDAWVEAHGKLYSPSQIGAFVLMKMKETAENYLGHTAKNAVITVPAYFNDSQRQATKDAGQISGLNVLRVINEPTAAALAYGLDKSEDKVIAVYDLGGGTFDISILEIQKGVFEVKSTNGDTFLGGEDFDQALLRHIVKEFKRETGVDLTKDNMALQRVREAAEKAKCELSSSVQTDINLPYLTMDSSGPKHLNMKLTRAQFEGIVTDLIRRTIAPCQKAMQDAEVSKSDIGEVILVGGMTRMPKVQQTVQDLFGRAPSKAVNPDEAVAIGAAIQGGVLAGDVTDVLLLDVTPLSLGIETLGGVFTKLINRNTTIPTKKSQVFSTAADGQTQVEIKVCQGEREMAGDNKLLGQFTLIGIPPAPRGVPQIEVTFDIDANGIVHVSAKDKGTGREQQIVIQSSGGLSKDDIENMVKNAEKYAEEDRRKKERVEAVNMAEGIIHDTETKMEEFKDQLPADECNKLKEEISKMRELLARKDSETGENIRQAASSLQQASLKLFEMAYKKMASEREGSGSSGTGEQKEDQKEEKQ
Description: as §1

c-MYC [7] = biological target: T1, c-MYC; assay: In vitro degradation assay of recombinant c-MYC by Lon protease; format: biochemical
Description: […] Proteins were incubated at 37° C. for 60, 120 or 240 minutes and were denatured using 10 mM DTT in NuPAGE Sample Buffer at 100° C. for 5 minutes before further analysis.
Samples were diluted with NuPAGE LDS sample buffer (Invitrogen) mixed with 10 mM dithiotreitol (DTT) and incubated at 56° C. for 20 min followed by addition of iodoacetamide (IAA) to a final concentration of 20 mM. Samples were loaded on 4-12% NuPAGE (Invitrogen). The electrophoresis was run in MOPS buffer. The gel was Coomassie stained and bands of interest were excised from the SDS-PAGE and trypsin digested, followed by identification using LC-MS/MS as per above. MS/MS spectra were investigated with PEAKS (version 10) against UniProt Human (released 2020 Feb. 21) where the sequence for GST-tag-MYC had been added. The precursor tolerance and fragment tolerance were set to 10 ppm and 0.05 Da, respectively. None enzyme was selected, methionine oxidation and deamidation of asparagine and glutamine were treated as dynamic modification and carbamidomethylation of cysteine as a fixed modification.

[8] = mouse, in vivo
c-MYB = format: cell-based, human
c-MYC [9] = format: cell-based, human; remark: listed apart in the source
MAX [10] = biological target: T2, MAX; format: binding
[11] = mouse, in vivo; remark: listed apart in the source

[Ca+2].[Cl-].[Cl-] [CaCl2]
Effect of metal ion pretreatment of E. coli 536 on c-MYC inhibition (c-MYC [1]): no effect

O=C(N/N=C/c1ccc(O)c(O)c1)c1cc2ccccc2cc1O [Dynasore]
Lon protease staining and uptake after endocytosis inhibitor pre-treatment [2]: reduced Lon protease staining and uptake

O=C(O)CN(CCOCCOCCN(CC(=O)O)CC(=O)O)CC(=O)O [EGTA, Egtazic acid]
Effect on CK1α1 activation (CK1α1 [3]): inhibited the activation of CK1α1

COc1cccc2c1C(=O)c1c(O)c3c(c(O)c1C2=O)C[C@@](O)(C(=O)CO)C[C@@H]3O[C@H]1C[C@H](N)[C@@H](O)[C@H](C)O1 [Epirubicin, reference compound]
Bladder size % Sham (range) (MB49 bladder tumors): 65 (53-70)^b % Sham
Bladder weight g^−1 (range) (MB49 bladder tumors): 3.9 (3.2-4.8)^b g^−1

COc1cc(OC)c(C=C2C(O)=Nc3ccccc32)c(OC)c1 [IC261]
Effect on c-MYC degradation in infected cells (CK1α1 [4]; 100 μg/ml, 30 minutes pre-treatment, E. coli 536): reduced c-MYC degradation
Effect on c-MYB inhibition by E. coli 536 (CK1α1 [4]; 30 minutes): reversed c-MYB inhibition

[Cl-].[Cl-].[Mg+2] [MgCl2]
Effect of metal ion pretreatment of E. coli 536 on c-MYC inhibition (c-MYC [1]): no effect

CO[C@@]12[C@H](COC(N)=O)C3=C(C(=O)C(C)=C(N)C3=O)N1C[C@@H]1N[C@@H]12 [Mitomycin, reference compound]
Bladder size % Sham (range) (MB49 bladder tumors): 67 (54-87)^b % Sham
Bladder weight g^−1 (range) (MB49 bladder tumors): 4 (3.4-5.9)^b g^−1

[Cl][Mn][Cl] [MnCl2]
Effect of metal ion pretreatment of E. coli 536 on c-MYC inhibition (c-MYC [1]): no effect

O=c1c(O)c(-c2ccc(O)c(O)c2)oc2cc(O)cc(O)c12 [Quercetin]
Lon protease staining and uptake after endocytosis inhibitor pre-treatment [2]: reduced Lon protease staining and uptake

[Cl-].[Cl-].[Zn+2] [ZnCl2]
Effect of metal ion pretreatment of E. coli 536 on c-MYC inhibition (c-MYC [1]): reversed c-MYC inhibition
Effect of treating the active E. coli 536 supernatant on MYC levels in host cells (c-MYC [1]): did not affect MYC levels in host cells

B1: Lon protease: Recombinant bacterial (E. coli) ATP-dependent serine peptidase Lon, commercially produced in E. coli K12 (protein, UniProt P0A9M0 2-784, looked up)
Lon protease: NPERSERIEIPVLPLRDVVVYPHMVIPLFVGREKSIRCLEAAMDHDKKIMLVAQKEASTDEPGVNDLFTVGTVASILQMLKLPDGTVKVLVEGLQRARISALSDNGEHFSAKAEYLESPTIDEREQEVLVRTAISQFEGYIKLNKKIPPEVLTSLNSIDDPARLADTIAAHMPLKLADKQSVLEMSDVNERLEYLMAMMESEIDLLQVEKRIRNRVKKQMEKSQREYYLNEQMKAIQKELGEMDDAPDENEALKRKIDAAKMPKEAKEKAEAELQKLKMMSPMSAEATVVRGYIDWMVQVPWNARSKVKKDLRQAQEILDTDHYGLERVKDRILEYLAVQSRVNKIKGPILCLVGPPGVGKTSLGQSIAKATGRKYVRMALGGVRDEAEIRGHRRTYIGSMPGKLIQKMAKVGVKNPLFLLDEIDKMSSDMRGDPASALLEVLDPEQNVAFSDHYLEVDYDLSDVMFVATSNSMNIPAPLLDRMEVIRLSGYTEDEKLNIAKRHLLPKQIERNALKKGELTVDDSAIIGIIRYYTREAGVRGLEREISKLCRKAVKQLLLDKSLKHIEINGDNLHDYLGVQRFDYGRADNENRVGQVTGLAWTEVGGDLLTIETACVPGKGKLTYTGSLGEVMQESIQAALTVVRARAEKLGINPDFYEKRDIHVHVPEGATPKDGPSAGIAMCTALVSCLTGNPVRADVAMTGEITLRGQVLPIGGLKEKLLAAHRGGIKTVLIPFENKRDLEEIPDNVIADLDIHPVKRIEEVLTLALQNEPSGMQVVTAK
Degradation of Actin in vitro (Actin): not degraded
Degradation of CBEB1 in vitro (CBEB1): not degraded
Binding to c-MYC by co-immunoprecipitation (c-MYC [5]): verified; also recorded: dose-dependent
Degradation of MAX in vitro (MAX [6]): not detected
Degradation of AKT in vitro (AKT): not degraded
Degradation of CDK9 in vitro (CDK9): not degraded
CEBP-δ degradation (CEBP-δ): < 5%
Degradation of HH3 in vitro (HH3): not degraded
Body weight at long-term follow up compared to sham (intestinal polyps): increase
Cancer gene networks as share of all regulated genes (intestinal polyps): 93%
Day until which mice remained asymptomatic (intestinal polyps): 175 days
Intestinal polyp number at long-term follow up compared to sham (intestinal polyps): significant reduction
MYC expression and MYC-dependent gene networks (intestinal polyps): inhibited
Polyp number compared to sham and pre-treatment samples (intestinal polyps): reduced the polyp number
Subset of colorectal cancer genes (intestinal polyps): 54%
Survival (Kaplan Mayer plot) (intestinal polyps): increased survival
Degradation of GRP75 in vitro (GRP75): not degraded
c-MYC degradation, comparative analysis of protein degradation (c-MYC [7]; FIG. 17i): degraded after 3 hours
c-MYC remaining after Lon dependent degradation (c-MYC [7]; Recombinant c-MYC (1 μg) with Lon protease (2 μg), 37° C., 0 to 4 hours, from 200 ng, n=3): 79 ng
Number of specific c-MYC peptides found after rLon degradation (LC-MS/MS) (c-MYC [7]; control sample 23 peptides): 10
c-MYC sequence covered by specific peptides after rLon degradation (LC-MS/MS) (c-MYC [7]; control sample 51%): 23%
c-MYC degradation in vitro (c-MYC [7]; recombinant c-MYC, kinetics): degrade recombinant c-MYC in vitro, in a time dependent manner
MYC-related genes activated [8]: 1
MYC-related genes inhibited [8]: 8
Body weight and macroscopic appearance of organs ([8]; po): No change
MYC expression in intestines ([8]; po): not regulated
Cytotoxic effects in human kidney cells (human kidney cells): not detected
c-MYB decrease compared to PBS (c-MYB): 45%
c-MYC staining in human kidney cells (c-MYC [9]): dose-dependent decrease
Pull-down of recombinant MAX (MAX [10]): Weak pull-down
Bladder weight and macroscopic appearance of the bladder [11]: No change
MYC expression in bladders [11]: not regulated
MYC-dependent genes activated [11]: 33
MYC-dependent genes inhibited [11]: 1
Bladder size % Sham (range) (MB49 bladder tumors): 69 (53-85)^a % Sham
Bladder size, weight and pathology compared to day 12 (MB49 bladder tumors): remained unchanged
Bladder weight g^−1 (range) (MB49 bladder tumors): 5.3 (3.9-6.3)^a g^−1
Bladder weights and pathology scores versus sham (MB49 bladder tumors): remained lower than in the sham group
Cancer gene networks as share of all regulated genes, compared to sham (MB49 bladder tumors): 96.6%
Day until which mice remained asymptomatic (MB49 bladder tumors): 27 days and 34 days
Efficiency compared with E. coli 536 supernatant (tumor progression, gene expression) (MB49 bladder tumors): more efficient
Expression of genes potentially involved in toxicity, compared with E. coli 536-treated mice (MB49 bladder tumors): less strongly expressed
Gene expression inhibited compared to the sham group (MB49 bladder tumors): 95%
Mice with bladder tumors present (MB49 bladder tumors): 15/15
Mice with hematuria (MB49 bladder tumors): 3/15 and 2/12
Subset of bladder cancer related genes inhibited (MB49 bladder tumors): 11.8%
Survival (Kaplan Meyer plot) (MB49 bladder tumors): increased survival
